Experimental findings from patent publication US20200247886A1 are described below.

The target in this assay is human CD47 expressed on cells (CD47 expressing CHO cells, Jurkat, HL60, DLD1, Raji) (human) (UniProt Q08722). The assay can be described thus: flow cytometry on human red blood cells, donor 2, MFI; EC50 (nM) table beside the legend; control whose curve stays low.

IgG (antibody) yielded an EC50 of 0.08 nM.
